Source: US20230391826A1, “COMPOSITIONS AND METHODS FOR TREATING DISEASES” (Sanford Burnham Prebys Medical Discovery Institute, priority 2020, published 2023)
*1 amine or outer side, *2 acyl side, *3 side chain or, on linkers, in order; H or OH if unused. Where no end group is shown, it is not given here. [ ]: non-standard residue; d: D form. Ccam = carbamidomethyl-cysteine, NC(=O)CSC[C@H](N[*:1])C(=O)[*:2]; βAla = NCCC(=O)O

B1: Lys-linked dimer (C-ter) (peptide)
peptide 1: [βAla]WLAYPDSVPYRPKK
peptide 2: [βAla]WLAYPDSVPYRPK
modifications: also: bond at chain A 15 to a chain's C-terminus
B2: Click dimer (N-ter) (peptide)
peptide 1: KAWLAYPDSVPYRPK
peptide 2: XGAWLAYPDSVPYRPK
modifications: not fully specified; propargylglycine (Pra) at position 1, joined by a click linkage to KN3 of the other chain; C-terminal amide; azido-lysine (KN3) at position 1, joined by a click linkage to Pra of the other chain; C-terminal amide
B3: linear dimer (head-to-tail) (peptide)
peptide: [βAla]WLAYPDSVPYRPKGGAWLAYPDSVPYRPK-NH2
modifications: N-terminus assumed
SMILES: CC(C)C[C@H](NC(=O)[C@H](Cc1c[nH]c2ccccc12)NC(=O)CCN)C(=O)N[C@@H](C)C(=O)N[C@@H](Cc1ccc(O)cc1)C(=O)N1CCC[C@H]1C(=O)N[C@@H](CC(=O)O)C(=O)N[C@@H](CO)C(=O)N[C@H](C(=O)N1CCC[C@H]1C(=O)N[C@@H](Cc1ccc(O)cc1)C(=O)N[C@@H](CCCNC(=N)N)C(=O)N1CCC[C@H]1C(=O)N[C@@H](CCCCN)C(=O)NCC(=O)NCC(=O)N[C@@H](C)C(=O)N[C@@H](Cc1c[nH]c2ccccc12)C(=O)N[C@@H](CC(C)C)C(=O)N[C@@H](C)C(=O)N[C@@H](Cc1ccc(O)cc1)C(=O)N1CCC[C@H]1C(=O)N[C@@H](CC(=O)O)C(=O)N[C@@H](CO)C(=O)N[C@H](C(=O)N1CCC[C@H]1C(=O)N[C@@H](Cc1ccc(O)cc1)C(=O)N[C@@H](CCCNC(=N)N)C(=O)N1CCC[C@H]1C(=O)N[C@@H](CCCCN)C(N)=O)C(C)C)C(C)C

Biological target: EphA2 extracellular domain fused to the Fc portion of an antibody (EphA2-Fc)
Sequence (P29317 whole entry, the tested form may be a part): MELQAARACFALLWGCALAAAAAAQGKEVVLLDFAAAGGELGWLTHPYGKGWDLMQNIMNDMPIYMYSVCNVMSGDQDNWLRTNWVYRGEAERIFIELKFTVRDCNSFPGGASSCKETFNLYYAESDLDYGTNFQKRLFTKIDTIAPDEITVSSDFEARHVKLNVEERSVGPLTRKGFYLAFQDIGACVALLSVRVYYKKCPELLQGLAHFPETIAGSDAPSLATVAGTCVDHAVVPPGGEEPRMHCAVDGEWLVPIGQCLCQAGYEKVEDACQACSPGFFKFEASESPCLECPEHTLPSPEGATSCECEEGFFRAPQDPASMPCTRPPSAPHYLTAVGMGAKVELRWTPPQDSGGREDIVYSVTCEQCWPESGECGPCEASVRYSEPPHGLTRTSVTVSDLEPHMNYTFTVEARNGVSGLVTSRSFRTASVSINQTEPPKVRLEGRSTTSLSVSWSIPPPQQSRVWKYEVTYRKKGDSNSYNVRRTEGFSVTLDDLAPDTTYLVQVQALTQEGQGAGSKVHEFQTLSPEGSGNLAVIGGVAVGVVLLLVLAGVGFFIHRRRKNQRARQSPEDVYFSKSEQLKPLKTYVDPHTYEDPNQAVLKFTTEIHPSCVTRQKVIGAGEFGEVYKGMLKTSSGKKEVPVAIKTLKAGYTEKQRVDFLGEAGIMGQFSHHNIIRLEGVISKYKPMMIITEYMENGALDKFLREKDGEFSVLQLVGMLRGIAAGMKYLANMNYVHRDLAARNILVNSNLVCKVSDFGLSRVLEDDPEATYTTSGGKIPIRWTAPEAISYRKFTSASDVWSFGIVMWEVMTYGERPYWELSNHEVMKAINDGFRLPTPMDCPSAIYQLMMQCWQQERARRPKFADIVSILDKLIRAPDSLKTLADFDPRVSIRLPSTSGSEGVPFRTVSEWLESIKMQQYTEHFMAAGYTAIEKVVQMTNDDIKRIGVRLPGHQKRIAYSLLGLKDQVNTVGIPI
Test: ELISA, inhibition of ephrinA5-AP binding to immobilized EphA2-Fc

| Binder | IC50 |
| --- | --- |
| B1 | 0.77 nM |
| [Ccam]GAWLAYPDSVPYR [CcamGA-WLA-YR] | 1400 nM |
| B2 | 0.54 nM |
| B3 | 0.4 nM |

Biological target: EphA2 extracellular domain fused to the Fc portion of an antibody (EphA2-Fc)
Test: ELISA, inhibition of ephrinA5-AP binding to immobilized EphA2-Fc; representative experiment, triplicates

| Binder | IC50 |
| --- | --- |
| B1 | 0.77 nM |
| [Ccam]GAWLAYPDSVPYR [CcamGA-WLA-YR] | 1300 nM |
| B2 | 0.58 nM |
| B3 | 0.38 nM |
